Experimental findings from PMC5710141 (Genes & Development, 2017) are described below.

The data set “AUC” deals with the molecule itself. As to the kind of experiment: AUC.
The next data set concerns the target Mif2c (Mif2 core) dimer (Saccharomyces cerevisiae (budding yeast), UniProt P35201 256-530). As to the kind of experiment: analytical ultracentrifugation.
Another data set concerns the target Mif2 DHBD (Saccharomyces cerevisiae (budding yeast), UniProt P35201 256-365). As to the kind of experiment: analytical ultracentrifugation.

B1: Mif2 core (Mif2c) dimer, Mif2 residues 256-530 (domain or fragment, budding yeast, UniProt P35201 256-530, looked up)
chain: NTNDNEDDYIRRQASDVVRTDSIIDRNGLRKSTRVKVAPLQYWRNEKIVYKRKSNKPVLDIDKIVTYDESEDEEEILAAQRRKKQKKKPTPTRPYNYVPTGRPRGRPKKDPNAKENLIPEDPNEDIIERIESGGIENGEWLKHGILEANVKISDTKEETKDEIIAFAPNLSQTEQVKDTKDENFALEIMFDKHKEYFASGILKLPAISGQKKLSNSFRTYITFHVIQGIVEVTVCKNKFLSVKGSTFQIPAFNEYAIANRGNDEAKMFFVQVTVS
For B1, in the data set “AUC”, the stoichiometry N (usually the number of molecules, sites or subunits per partner or assembly) came out at 2.

B2: 40-bp AT-rich dsDNA (dsDNA)
DNA 1: AAAGTAAAAAATAAAAAGTAGTTTATTTTTAAAAAATAAA
DNA 2: TTTATTTTTTAAAAATAAACTACTTTTTATTTTTTACTTT
For B2, the binding result with Mif2c (Mif2 core) dimer is recorded as “binds”.

B3: 20-bp AT-rich dsDNA (dsDNA)
DNA 1: AAAGTAAAAAATAAAAAGTA
DNA 2: TACTTTTTATTTTTTACTTT
For the molecule B3, the binding result in the data set with Mif2 DHBD is reported as “binds”.
